Test results as given in US20240262893A1.

Molecular target: SARS-CoV-2 (Wuhan-Hu-1) wild-type (WT) spike protein carried on pseudotyped virus or on live wild-type virus (SARS-CoV-2 (Wuhan-Hu-1)), P0DTC2
Test: cell-based or functional assay

B1: R2D9 CDR3-knob (peptide)
peptide: ITHKTCPNGYNWFDRCCSWDGTCGDGCCSNRAWPSGNGRADSSIGETYGYEF
modifications: not checked
pseudovirus neutralization, ng/mL (quantity not given): 24.2 ng/mL
